# Experimental data taken from US20230093265A1 (PROSMEDIC SWEDEN, published 2023).
# B1: human synthetic scFv fragment 1 (scFv)
# scFv: EVQLLESGGGLVQPGGSLRLSCAASGFTFSSYAMSWVRQAPGKGLEWVSAISGSGGSTYYASVKGRFTISRDNSKNTLYLQMNSLRAEDTAVYYCARHYYNWASGYFDYWGQGTLVTVSSGGGGSGGGGSGGGGSDIQMTQSPSSLSASVGDRVTITCRASQSISSYLNWYQQKPGKAPKLLIYAASSLQSGVPSRFSGSGSGTDFTLTISSLQPEDFATYYCQQGWYPPTFGQGTKLEIKR
# notes: also called scFv 1
# B2: human synthetic scFv fragment 10 (scFv)
# scFv: EVQLLESGGGLVQPGGSLRLSCAASGFTFSSYAMSWVRQAPGKGLEWVSAISGSGGSTYYASVKGRFTISRDNSKNTLYLQMNSLRAEDTAVYYCARYSYYYTWLDYWGQGTLVTVSSGGGGSGGGGSGGGGSDIQMTQSPSSLSASVGDRVTITCRASQSISSYLNWYQQKPGKAPKLLIYAASSLQSGVPSRFSGSGSGTDFTLTISSLQPEDFATYYCQQFYPSLHTFGQGTKLEIKR
# notes: also called scFv 10
# B3: human synthetic scFv fragment 7 (scFv)
# scFv: EVQLLESGGGLVQPGGSLRLSCAASGFTFSSYAMSWVRQAPGKGLEWVSAISGSGGSTYYASVKGRFTISRDNSKNTLYLQMNSLRAEDTAVYYCARYTHSTYGYRLDYWGQGTLVTVSSGGGGSGGGGSGGGGSDIQMTQSPSSLSASVGDRVTITCRASQSISSYLNWYQQKPGKAPKLLIYAASSLQSGVPSRFSGSGSGTDFTLTISSLQPEDFATYYCQQDAYHPPTFGQGTKLEIKR
# notes: also called scFv 7; AK7
# B4: human synthetic scFv fragment 12 (scFv)
# scFv: EVQLLESGGGLVQPGGSLRLSCAASGFTFSSYAMSWVRQAPGKGLEWVSAISGSGGSTYYASVKGRFTISRDNSKNTLYLQMNSLRAEDTAVYYCARTYYYFYPYGYYFDYWGQGTLVTVSSGGGGSGGGGSGGGGSDIQMTQSPSSLSASVGDRVTITCRASQSISSYLNWYQQKPGKAPKLLIYAASSLQSGVPSRFSGSGSGTDFTLTISSLQPEDFATYYCQQGFYLPTFGQGTKLEIKR
# notes: also called scFv 12
# B5: human synthetic scFv fragment 5 (scFv)
# scFv: EVQLLESGGGLVQPGGSLRLSCAASGFTFSSYAMSWVRQAPGKGLEWVSAISGSGGSTYYASVKGRFTISRDNSKNTLYLQMNSLRAEDTAVYYCARSYSWYSRGPSLDYWGQGTLVTVSSGGGGSGGGGSGGGGSDIQMTQSPSSLSASVGDRVTITCRASQSISSYLNWYQQKPGKAPKLLIYAASSLQSGVPSRFSGSGSGTDFTLTISSLQPEDFATYYCQQAFYAHLLTFGQGTKLEIKR
# notes: also called scFv 5
# B6: human synthetic scFv fragment 2 (scFv)
# scFv: EVQLLESGGGLVQPGGSLRLSCAASGFTFSSYAMSWVRQAPGKGLEWVSAISGSGGSTYYASVKGRFTISRDNSKNTLYLQMNSLRAEDTAVYYCARTTSYYGYSAHFIDYWGQGTLVTVSSGGGGSGGGGSGGGGSDIQMTQSPSSLSASVGDRVTITCRASQSISSYLNWYQQKPGKAPKLLIYAASSLQSGVPSRFSGSGSGTDFTLTISSLQPEDFATYYCQQGYGPFTFGQGTKLEIKR
# notes: also called scFv 2
# B7: human synthetic scFv fragment 6 (scFv)
# scFv: EVQLLESGGGLVQPGGSLRLSCAASGFTFSSYAMSWVRQAPGKGLEWVSAISGSGGSTYYASVKGRFTISRDNSKNTLYLQMNSLRAEDTAVYYCARYVRGYGYGYLDYWGQGTLVTVSSGGGGSGGGGSGGGGSDIQMTQSPSSLSASVGDRVTITCRASQSISSYLNWYQQKPGKAPKLLIYAASSLQSGVPSRFSGSGSGTDFTLTISSLQPEDFATYYCQQAPAYSPFTFGQGTKLEIKR
# notes: also called scFv 6
# B8: human synthetic scFv fragment 3 (scFv)
# scFv: EVQLLESGGGLVQPGGSLRLSCAASGFTFSSYAMSWVRQAPGKGLEWVSAISGSGGSTYYASVKGRFTISRDNSKNTLYLQMNSLRAEDTAVYYCARVYYHYYYYGSFDYWGQGTLVTVSSGGGGSGGGGSGGGGSDIQMTQSPSSLSASVGDRVTITCRASQSISSYLNWYQQKPGKAPKLLIYAASSLQSGVPSRFSGSGSGTDFTLTISSLQPEDFATYYCQQSTHLSTFGQGTKLEIKR
# notes: also called scFv 3
# B9: human synthetic scFv fragment 8 (scFv)
# scFv: EVQLLESGGGLVQPGGSLRLSCAASGFTFSSYAMSWVRQAPGKGLEWVSAISGSGGSTYYASVKGRFTISRDNSKNTLYLQMNSLRAEDTAVYYCARVFYYGPYYFSYHFDYWGQGTLVTVSSGGGGSGGGGSGGGGSDIQMTQSPSSLSASVGDRVTITCRASQSISSYLNWYQQKPGKAPKLLIYAASSLQSGVPSRFSGSGSGTDFTLTISSLQPEDFATYYCQQDDRGLPTFGQGTKLEIKR
# notes: also called scFv 8
# B10: human synthetic scFv fragment 11 (scFv)
# scFv: EVQLLESGGGLVQPGGSLRLSCAASGFTFSSYAMSWVRQAPGKGLEWVSAISGSGGSTYYASVKGRFTISRDNSKNTLYLQMNSLRAEDTAVYYCARYTYYVGGFDYWGQGTLVTVSSGGGGSGGGGSGGGGSDIQMTQSPSSLSASVGDRVTITCRASQSISSYLNWYQQKPGKAPKLLIYAASSLQSGVPSRFSGSGSGTDFTLTISSLQPEDFATYYCQQGFVLSTFGQGTKLEIKR
# notes: also called scFv 11
# B11: human synthetic scFv fragment 9 (scFv)
# scFv: EVQLLESGGGLVQPGGSLRLSCAASGFTFSSYAMSWVRQAPGKGLEWVSAISGSGGSTYYASVKGRFTISRDNSKNTLYLQMNSLRAEDTAVYYCARSHYGSLDYWGQGTLVTVSSGGGGSGGGGSGGGGSDIQMTQSPSSLSASVGDRVTITCRASQSISSYLNWYQQKPGKAPKLLIYAASSLQSGVPSRFSGSGSGTDFTLTISSLQPEDFATYYCQQFSYTLSTFGQGTKLEIKR
# notes: also called scFv 9
# Biological target: T1, purified prostasomes (from human seminal plasma) (human)
# T1 construct: Not a single protein: exosome-type vesicle purified from seminal plasma
# Experiment: direct ELISA, coated purified prostasomes, biotinylated scFv at 4 µg/mL, streptavidin-HRP
# Description: The wells were washed three times with PBS containing 0.05% Tween 20. Addition of biotinylated human synthetic scFv fragments 1:250 in row A were made and then 1:5 dilutions downwards. The plates were then incubated for 2 h at room temperature and then washed three times with PBS containing 0.05% Tween 20. 100 μL Streptavidine-HRP was added to the wells and incubated for 2 h at room temperature. The wells were washed three times with PBS containing 0.05% Tween 20. 100 μL TMB (tetramethylbenzidine) substrate was added to the wells, and incubated for 20 min and 25 μL 1 M H2SO4 was added to the plate. The plate was read at 450 nm.
# Seminal plasma was collected from the Reproduction Centre at Akademiska Hospital (Uppsala, Sweden) following previously described routines (Ronquist, G. K., et al., Prostasomal DNA characterization and transfer into human sperm. Mol Reprod Dev, 2011. 78 (7): p. 467-76). The seminal plasma was thawed and centrifuged at 3,000 g for 12 min. The supernatants were collected and centrifuged at 10,000 g for 30 min. The supernatants were then transferred to new tubes and ultra-centrifuged using a 90Ti rotor (Beckman Coulter, Brea, Calif., USA) at 100,000 g for 2 h. The pellets were resuspended in 0.02 M NaH2PO4, 0.15 M NaCl, pH 7.2 (PBS), overnight at 4° C. The resuspended pellets were then loaded on a chromatography column (XK 60/70, GE Healthcare, Uppsala, Sweden) packed with Superdex 200 gel. Fractions were collected at a flow rate of 5 mL/h. The fractions were then measured with a spectrophotometer where peaks at both 260 nm (nucleic acid) and 280 nm (proteins) corresponds to prostasomes. These fractions were collected and pooled and ultra-centrifuged at 100,000 g. The obtained pellet was resuspended in PBS. The purified prostasomes (1 mg/ml were diluted 1:250 in PBS and 100 μL were added per well in a F96 Polysorb NUNC Immunoplate (Thermo Fisher Scientific, Uppsala, Sweden). The plates were incubated for 2 h at ambient temperature and then washed three times with PBS containing 0.05% Tween 20 (P1379, Sigma-Aldrich). 120 μL 1% bovine serum albumin (BSA, Sigma-Aldrich) in PBS were added to the wells and the plate was incubated over night at ambient temperature. The plate was washed three times with PBS containing 0.05% Tween 20. 100 μL of the biotinylated monoclonal antibodies were added in dilution of 4 μg/mL in PBS to the wells.
row,Absorbance [absorbance at 450 nm],Binder
1,0.643,B1
2,1.64,B2
3,1.36,B3
4,0.954,B4
5,0.617,B5
6,0.394,B6
7,0.556,B7
8,0.903,B8
9,0.653,B9
10,0.066,B10
11,1.29,B11
